Data: article PMC9482650, “Quantitative fragmentomics allow affinity mapping of interactomes” (Nature Communications, 2022)

Columns and labels:
Assay in all cases: holdup assay
Design in all cases: key: below the threshold = too weak to quantify, mostly under pKd 3.1 to 4
Conditions in all cases: plain residues with an end cap or a label only (N-terminal biotin on a linker: ahx)
CASK, O14936 = biological target: CASK, O14936
DFNB31_3, Q9P202 = biological target: T1, DFNB31_3, Q9P202
T1 sequence (Q9P202 811-907, limits assumed, looked up): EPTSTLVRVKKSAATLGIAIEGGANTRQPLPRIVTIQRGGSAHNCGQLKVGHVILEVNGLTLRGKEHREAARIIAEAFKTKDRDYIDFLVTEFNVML

Inadl_1, Q8NI35 = biological target: Inadl_1, Q8NI35
DLG1_3, Q12959 = biological target: DLG1_3, Q12959
DLG4_2, P78352 = biological target: DLG4_2, P78352
TJP1_3, Q07157 = biological target: TJP1_3, Q07157
PDZD2_2, O15018 = biological target: T2, PDZD2_2, O15018
T2 sequence (O15018 329-429, limits assumed, looked up): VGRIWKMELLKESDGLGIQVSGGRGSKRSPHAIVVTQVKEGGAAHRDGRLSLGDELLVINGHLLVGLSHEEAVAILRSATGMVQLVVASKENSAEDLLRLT

HTRA2, O43464 = biological target: HTRA2, O43464
LRRC7, Q96NW7 = biological target: T3, LRRC7, Q96NW7
T3 sequence (Q96NW7 1440-1537, limits assumed, looked up): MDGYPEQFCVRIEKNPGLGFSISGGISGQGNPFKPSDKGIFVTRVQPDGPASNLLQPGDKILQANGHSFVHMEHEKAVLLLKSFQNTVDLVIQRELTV

LIN7B, Q9HAP6 = biological target: T4, LIN7B, Q9HAP6
T4 sequence (Q9HAP6 88-185, limits assumed, looked up): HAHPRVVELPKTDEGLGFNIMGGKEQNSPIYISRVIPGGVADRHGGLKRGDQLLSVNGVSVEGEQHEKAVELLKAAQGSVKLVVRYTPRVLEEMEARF

GRIP2_6, Q9C0E4 = biological target: GRIP2_6, Q9C0E4
APBA3_1, O96018 = biological target: T5, APBA3_1, O96018
T5 sequence (O96018 389-490, limits assumed, looked up): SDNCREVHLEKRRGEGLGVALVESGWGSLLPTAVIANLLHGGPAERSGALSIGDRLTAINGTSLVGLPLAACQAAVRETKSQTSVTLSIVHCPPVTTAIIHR

SIPA1L2, Q9P2F8 = biological target: T6, SIPA1L2, Q9P2F8
T6 sequence (Q9P2F8 945-1036, limits assumed, looked up): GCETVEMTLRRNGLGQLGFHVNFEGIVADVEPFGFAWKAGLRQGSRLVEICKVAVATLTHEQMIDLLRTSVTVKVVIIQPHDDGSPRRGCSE

NHERF3_3, Q5T2W1 = biological target: T7, NHERF3_3, Q5T2W1
T7 sequence (Q5T2W1 238-333, limits assumed, looked up): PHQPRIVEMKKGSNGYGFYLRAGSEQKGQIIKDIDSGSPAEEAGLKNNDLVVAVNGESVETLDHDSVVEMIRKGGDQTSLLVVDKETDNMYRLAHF

FRMPD4, Q14CM0 = biological target: FRMPD4, Q14CM0
APBA1_1, Q02410 = biological target: T8, APBA1_1, Q02410
T8 sequence (Q02410 651-752, limits assumed, looked up): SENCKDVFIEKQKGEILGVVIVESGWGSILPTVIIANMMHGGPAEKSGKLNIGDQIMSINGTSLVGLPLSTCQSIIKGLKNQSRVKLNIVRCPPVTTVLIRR

PDLIM1, O00151 = biological target: PDLIM1, O00151
GRIP1_4, Q9Y3R0 = biological target: T9, GRIP1_4, Q9Y3R0
T9 sequence (Q9Y3R0 467-571, limits assumed, looked up): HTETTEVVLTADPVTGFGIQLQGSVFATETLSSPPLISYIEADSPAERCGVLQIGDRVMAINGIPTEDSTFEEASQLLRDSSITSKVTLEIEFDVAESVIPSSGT

TIAM2, Q8IVF5 = biological target: T10, TIAM2, Q8IVF5
T10 sequence (Q8IVF5 885-986, limits assumed, looked up): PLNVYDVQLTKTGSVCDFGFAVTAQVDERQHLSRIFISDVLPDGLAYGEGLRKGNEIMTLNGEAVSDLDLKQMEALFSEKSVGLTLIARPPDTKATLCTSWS

GOPC, Q9HD26 = biological target: GOPC, Q9HD26
NHERF4_4, Q86UT5 = biological target: NHERF4_4, Q86UT5
IL16_4, Q14005 = biological target: IL16_4, Q14005
PDZRN4_1, Q6ZMN7 = biological target: PDZRN4_1, Q6ZMN7
MAST2, Q6P0Q8 = biological target: MAST2, Q6P0Q8
MPDZ_10, O75970 = biological target: T11, MPDZ_10, O75970
T11 sequence (O75970 1624-1722, limits assumed, looked up): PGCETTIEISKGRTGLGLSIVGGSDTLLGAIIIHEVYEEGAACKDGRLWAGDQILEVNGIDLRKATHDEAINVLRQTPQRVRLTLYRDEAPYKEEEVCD

Inadl_6, Q8NI35 = biological target: Inadl_6, Q8NI35
Sequence of Inadl_6, Q8NI35 (Q8NI35 1058-1167): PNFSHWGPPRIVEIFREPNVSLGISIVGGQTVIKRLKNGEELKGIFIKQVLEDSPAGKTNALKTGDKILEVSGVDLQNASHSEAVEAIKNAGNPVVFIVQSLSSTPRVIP

Sequence of CASK, O14936 (O14936 487-570): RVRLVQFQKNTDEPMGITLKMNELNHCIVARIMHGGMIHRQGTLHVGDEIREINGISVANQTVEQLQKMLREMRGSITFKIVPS
Sequence of NHERF4_4, Q86UT5 (Q86UT5 464-550): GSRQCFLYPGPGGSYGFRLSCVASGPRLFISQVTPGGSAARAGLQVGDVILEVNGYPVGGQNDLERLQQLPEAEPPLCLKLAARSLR
Sequence of DLG1_3, Q12959 (Q12959 457-571): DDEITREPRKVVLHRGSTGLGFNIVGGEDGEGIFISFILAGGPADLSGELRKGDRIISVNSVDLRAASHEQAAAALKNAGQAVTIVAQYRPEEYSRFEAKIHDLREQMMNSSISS
Sequence of GRIP2_6, Q9C0E4 (Q9C0E4 648-740): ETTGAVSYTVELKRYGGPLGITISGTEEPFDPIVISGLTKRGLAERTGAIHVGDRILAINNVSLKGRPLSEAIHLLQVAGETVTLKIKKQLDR
Sequence of Inadl_1, Q8NI35 (Q8NI35 113-229): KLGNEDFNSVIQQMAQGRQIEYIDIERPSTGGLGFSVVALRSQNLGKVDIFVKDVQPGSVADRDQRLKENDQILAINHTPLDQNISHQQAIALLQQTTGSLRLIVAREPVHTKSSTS
Sequence of PDZRN4_1, Q6ZMN7 (Q6ZMN7 213-318): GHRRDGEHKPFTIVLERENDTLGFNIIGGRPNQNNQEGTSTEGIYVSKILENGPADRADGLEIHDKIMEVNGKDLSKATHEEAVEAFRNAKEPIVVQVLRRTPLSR
Sequence of TJP1_3, Q07157 (Q07157 416-512): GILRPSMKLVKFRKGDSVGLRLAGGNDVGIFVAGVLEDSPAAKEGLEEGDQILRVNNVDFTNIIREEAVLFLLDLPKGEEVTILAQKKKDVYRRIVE
Sequence of IL16_4, Q14005 (Q14005 1229-1329): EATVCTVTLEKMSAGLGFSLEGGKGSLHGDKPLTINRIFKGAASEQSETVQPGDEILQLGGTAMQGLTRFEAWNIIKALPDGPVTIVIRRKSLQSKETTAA
Sequence of MAST2, Q6P0Q8 (Q6P0Q8 1099-1202): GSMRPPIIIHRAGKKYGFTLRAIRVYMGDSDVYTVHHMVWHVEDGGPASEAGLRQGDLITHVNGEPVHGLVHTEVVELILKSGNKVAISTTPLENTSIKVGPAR
Sequence of FRMPD4, Q14CM0 (Q14CM0 67-160): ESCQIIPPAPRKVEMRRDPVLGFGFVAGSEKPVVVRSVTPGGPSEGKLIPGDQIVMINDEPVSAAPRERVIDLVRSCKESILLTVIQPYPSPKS
Sequence of PDLIM1, O00151 (O00151 1-87): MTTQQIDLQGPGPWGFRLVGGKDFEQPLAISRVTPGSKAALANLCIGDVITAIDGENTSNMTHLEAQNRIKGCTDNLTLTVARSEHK
Sequence of HTRA2, O43464 (O43464 355-458): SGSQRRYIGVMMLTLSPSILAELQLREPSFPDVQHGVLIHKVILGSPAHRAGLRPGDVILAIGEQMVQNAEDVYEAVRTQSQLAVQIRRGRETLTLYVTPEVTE
Sequence of DLG4_2, P78352 (P78352 155-259): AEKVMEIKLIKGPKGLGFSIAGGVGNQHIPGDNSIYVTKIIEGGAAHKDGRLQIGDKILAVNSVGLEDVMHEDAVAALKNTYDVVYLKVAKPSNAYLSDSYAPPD

Binder	pKd (CASK, O14936)	pKd (DFNB31_3, Q9P202)	pKd (Inadl_1, Q8NI35)	pKd (DLG1_3, Q12959)	pKd (DLG4_2, P78352)	pKd (TJP1_3, Q07157)	pKd (PDZD2_2, O15018)	pKd (HTRA2, O43464)	pKd (LRRC7, Q96NW7)	pKd (LIN7B, Q9HAP6)	pKd (GRIP2_6, Q9C0E4)	pKd (APBA3_1, O96018)	pKd (SIPA1L2, Q9P2F8)	pKd (NHERF3_3, Q5T2W1)	pKd (FRMPD4, Q14CM0)	pKd (APBA1_1, Q02410)	pKd (PDLIM1, O00151)	pKd (GRIP1_4, Q9Y3R0)	pKd (TIAM2, Q8IVF5)	pKd (GOPC, Q9HD26)	further results
PKMKLNETSF [SHKBP1, Q8TBC3]	below the threshold	below the threshold	below the threshold	below the threshold	below the threshold	below the threshold	below the threshold	below the threshold	below the threshold	below the threshold	below the threshold	below the threshold	below the threshold	below the threshold	below the threshold	below the threshold	3.51	below the threshold	below the threshold	below the threshold	pKd (NHERF4_4, Q86UT5): below the threshold; pKd (IL16_4, Q14005): below the threshold; pKd (PDZRN4_1, Q6ZMN7): below the threshold; pKd (MAST2, Q6P0Q8): 4.94; pKd (MPDZ_10, O75970): below the threshold; pKd (Inadl_6, Q8NI35): below the threshold
YNSFLSVTTV [PDZRN3, Q9UPQ7]	below the threshold	3.51	3.82	3.83	4.15	below the threshold	3.55	3.48	below the threshold	below the threshold	below the threshold	below the threshold	below the threshold	below the threshold	below the threshold	below the threshold	below the threshold	below the threshold	below the threshold	4.1	pKd (NHERF4_4, Q86UT5): 3.49; pKd (IL16_4, Q14005): below the threshold; pKd (PDZRN4_1, Q6ZMN7): below the threshold; pKd (MAST2, Q6P0Q8): 4.46; pKd (MPDZ_10, O75970): 3.96; pKd (Inadl_6, Q8NI35): below the threshold
